Assay results reported in the domain aggregation screens of Martell et al. (2025).

Assay: soluble fraction after stress (log2 fold change); higher = more stays soluble; pooled small domains, quantitative proteomics
Conditions: stress: pH 4
Method in brief: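 Values are on a log2 scale, where higher means more of the domain stayed soluble after pH 4 stress. They are fold changes in the soluble amount of each domain from pooled custom libraries, measured by high-throughput quantitative proteomics. The fold change is taken to reflect aggregation propensity.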

HMSKPVVWIVGDSTVSAFTDNYYYPRYGWGTQIDKYLDGTFEVKNIALSGRSSTSYTADKEYGELIAG
soluble fraction (log2): 0.0502

HMNDITVNVEDSKLIVTSNNPEKLPLYIMDIQGHILDKSEITAGTYSFPISDRGTYIVRIGENVYKVI
soluble fraction (log2): 0.186

HMDSGVPEWLASALRASPVAWKNFLALPPSHQRRYVGWISSARRDETRNRRIAEAISLLVEHKRLG
soluble fraction (log2): 0.0211

HMNVLGQTAIVRSLRLDATFGEVLLADGGAGLIFKARTHGDETFKKGDRVVLLEYLKDQHAYRVISETDFL
soluble fraction (log2): -1.18

HMRRPTYPTVTTEAGMVVEDRSSGFVGDIVRWSFEGVTLRDRQQQLRHFTWKPGGFLINGTPVTLKRPE
soluble fraction (log2): 0.0911

HMTEEELLERLDAVITEYKGKPGALIPVLQLAQGIFGYLPEVALKHIARQLDKPYSEVAGVVSFYSFFTT
soluble fraction (log2): -0.048

HMITNMIIIMKPNASEEAIEKVKHLIESKGLQAHLSKGDEVTIVGVVGDKTRLHDSNIEISEGVDKIVNVT
soluble fraction (log2): -0.0219

HMKMSVKNEIISLLEKNRDTSISGQVIADSLNVTRAAVWKAIKVLKEEGYNIDGTPNKGYILLGNN
soluble fraction (log2): 0.0991

HMALKSGVIAHAVDDAVMRGLNVFTVSDDGSIVSMKDNDIVLGKDGKSPYSVSEWLEELKPNVPHWFG
soluble fraction (log2): -0.256

HMAHRYQQIADDLGRRVEAGEFAAGRLLPSEATLSGQYKASRVTVRKALEALRTDGLVESRQGFGWFVAAD
soluble fraction (log2): 0.262

HMSARRHAVKHLDANQLQTRVARMLSEFGLTAKVSKDPNSNALIIDGAPEAQRIAAQLITTIDKE
soluble fraction (log2): 0.063

HMKLSDDIIVDTIKEIIEENKNMIEQRKMGAMGPLMGKAMAKFKGKADGQTVSNVIKDEILNIIN
soluble fraction (log2): 0.0647

HMAQILEPSVALKKLLELKQAGFEDETLVGWIRKVEFTRPLTPDDLLEWKGAGISQAVIRAAM
soluble fraction (log2): 0.00449

HMIGIRLKELVLKNQSAWVGLRVSELDISRKTMIVMIRRGDKMLIPNGSTILRSGDVLLLYTR
soluble fraction (log2): -0.354

HMKPMNNNDILRRLRYTFDLSDDKMMETFALGGYEANRSEISDWLKKDDHPEQKSLYDKSLSHFLNGFIV
soluble fraction (log2): -0.085

HMDKLNKELVSRMMDDAAWKELSKDFPWTEQLLEKYMNYVDWKEISRNYNVVWTKSLLEKFKHRLDWHE
soluble fraction (log2): -1.1

HMDYENGTVKWFNTKKGYGFITRENGEDLFVHFRNIKGRGRRSLNDGEPVTFVVIEGDKGLQADQVSA
soluble fraction (log2): -0.754

HMPLTRSDVKRIQLWLMAHGYDIGSPDGVFGDKSNRAANAFLSQQGRSLETVTLGKLYDILEAN
soluble fraction (log2): -0.941

HMRPRWTEQEVERAKAIKMIYPNAYRLESSDVFVQVWSKEEILLAHVEVDMFPSLRPGQPVELDEIIG
soluble fraction (log2): -0.114

HMDGLAEQLFNILREELESGDYKPGQKLMSESALAQKYGVSRLTVRAAIARLSALDYVETRNGEGSFVKKR
soluble fraction (log2): -0.0881

HMLEIGRYNTLTVLRKVDFGYYLDGLDYGDILMPAKYAATELEAGDEVDVFIYLDSSEKLIATTETPIAQ
soluble fraction (log2): -1.58

HMNKTEIISILEKIVLPTQIRNINIFGSEVIIDLNIDNPSLHAKKKLEKSIINSFDKNHKIIINFNVE
soluble fraction (log2): -0.514

HMNLRLKEVLDEKNMSLVTLSEKTGIEKGNLSAISNNKKNPTVETLSKIAKALQISLAELFESPP
soluble fraction (log2): 0.169

HMSFVEVTVSELKNYVNSHARIKLKSGKEFKGFILDANEEGVIIKVQLRGGTAESTISYNRIDRAAVF
soluble fraction (log2): -1.11

HMATTTEPTSPPAATASLEAKINWLFLIFRNKKTVTASEQKFHAEDASTVVGKETLTDDGTTMTKGETAAG
soluble fraction (log2): -0.437

HMQPYTYNPNFLSDYRAYSLGIPLEAYDKLVQFRASGSFVNSMSDFQKITGVSDSLLAVLHSKFRYPK
soluble fraction (log2): -0.602

HMNILKKDKRLWDENNLNKPLLFELLENYDKEIFELLLTDKDIKAKFFVQAGESYVFKYDDFRFAIEQN
soluble fraction (log2): -1.75

HMQVPVNVSMEILDWVIAHIKIDALPNQIREYLNLWVNGEKEPTFNQVEKVSKATGIPLGYFFLQTPPIED
soluble fraction (log2): -1.33

HMKVWYAGINAQRVGPMTLGAMEQQIRYGRVLFSTLIWKSPMPQWVPAGDVPELRRLLDEHMLNQMP
soluble fraction (log2): -0.676

HMSNYFIEISKDSLARINDEIELDVLRETSDTIIISQEEKTNTISSFIKVLFERQIDILSIQNR
soluble fraction (log2): -1.25

HMKAKPTLLTPYEERLKGWLETDSRRPKRDRRTGLALFAKLQQEGFTGSYTRVTEYIRRWRDSGG
soluble fraction (log2): 0.0729

HMAFEDYAGEYRSAADFAESLHEDTGTEIPESLRYYIDWQALARDMALNGEIMVFQTGFDEVHIFWS
soluble fraction (log2): -0.878

HMLHEFSGVVVSILADTGPSTLKQLHRSLISSDVKMDEKELMQILDEALSSGSVTSHRKGRYLYYSANK
soluble fraction (log2): -0.399

HMGGSLADAKRFLADLLADGPVPAKGVRADADGAGHTWPTIRRAQKALGIEATKTGMKGGWVWALPR
soluble fraction (log2): 0.00461

HMDNFQFIGYSQQQGQIAVAWIKSLDNGRLVRVEVSDSLEGWRVSDISAQGVNLTKGQQWLMLKRL
soluble fraction (log2): -1.37

HMDAIDPKTVTSWADLWKPEYKSSLLLTDDAREVFQMALRKLGYSGNTTDPKEIEAAYNELKKLMPNVAAF
soluble fraction (log2): -0.474

HMYSYSFTSSEGSTFEGQLIRVEESQVTILRYADQKEFSIPKSRFIEADQVYFERWAIENPQL
soluble fraction (log2): -2.88

HMRVVGRNHYDDADLAHIRSVIQLEARPLNVSRIARTLANEYPKHTYWSYLSFLQKNLRDRPDLF
soluble fraction (log2): 0.419
